From the DeepSol protein solubility set

assay: soluble on expression in E. coli; label from the status in PepcDB or PDB records

| Sequence | soluble on expression in E. coli |
| --- | --- |
| CPRLIRFVMEEDYANLPPLRRFLRRAGVIPISASNRSSIRRAFNDVEEALNEGHIVCIFPEGRLTSDGEMNDFMRGIDIILRRSPVPVIPMALKGLWGSYFSRAKGRACRGFPTRFWSKLEIEAGEPVDPSSATAQTMFEKVHALRGDWR | not soluble |
| MSLRLALRQVDGAALALRRCGEAWAGQDVRIAYPPSHGCWLKVAGADGSWQGWLQPRAWLRHMAPELASLASAAGMDDRLSELIAACEAPLSWPVADMPLGRIVAGERREGSQLPQRPMLRMDTPQGEVWLEKAPAPAEAARDRVPGWLPMPLRFLLGDSMVSPSLLRRAKAGDVLLISRPAQTVSCNGRAIGTYQWTEEGIIMEWQNEMAAAAETRPLADLDRLPVRLEFVLQQSEVTLDELRELCRSNVLPLSADAERRVELRANGALLGRGELVQLDGRLGVEVAQWLGGSGDVEEGHHHHHH | soluble |
| SADSEADKPLRKISAAFKKLAIIVNSPNPEVPVTQFSHACSLVSPLFGCLGIAFKFAEMDYVAKVDDLVRASSSISTLVVMMDKDIEADCVRKAGSHTRNLLRVKRGLDMVKVLFEQIIASEGDNSLKDPATKSYAQVFAPHHGWAIRKAVSLGMYALPTRAHLLNMLKEDEAAAKIHMQSYVNSSAPLITYLDNLFLSKQLGIDW | soluble |
| MGSDKIHHHHHHMKPHTLLIVDDDDTVAEMLELVLRGAGYEVRRAASGEEALQQIYKNLPDALICDVLLPGIDGYTLCKRVRQHPLTKTLPILMLTAQGDISAKIAGFEAGANDYLAKPFEPQELVYRVKNILARTTIETPTTPVQRGKVITVFGAKGGVGKTTIAVSVALALRLRSRRRVVIVDADLTFGDVAVHLNIAPTRSIIDIVRSGDEIEQEMVKQVLLSHPSGLQALLAPPRPEEAELVSAEHMTRILDLLAVNADYVVVDCQTSYDDRTLSVFDRTDHVLLVITPEIGPLKNTSLFLSLANQLGIDPRAISIVLNRSNSGVGIGVNEIERVLRRKINYHVMSGGQPVVTAVNRGTPLILEQPKHPFVQQILYLADQMMKQLDTNQNVQTDTVTR | not soluble |
| MSLTVMSIQDNLTINEKKVLLALEELRSAVPDKLEEKSGLQIDAAMQAAFMLQEKELASVSEKVLERYSLTKEGEEYKKTGLPERQIIDALKNPVSLEELRSCFSPQTVGIATGWLVKKGWAKVENGIMVPSGEASEGKDEKALSAFAGKAKTLEELGADEGTVKDLLKRKLVVKHEEKFRTVSITDAGSELASQGLVLEEEIAQLTPELLKSGAWKEKKFRPYRLDITPKPLYGTKIHPYRRLIEQMRQIFLEMGFTEIKGGIIQSSFWNFDALFQPQDHPARDMQDTFHLGSTCQIPAEYSGKVAAMHENGGDIDSCGWGGIWDRELAGRNVLRTHTTSVTIKYLADNPEPPVKAFCIDRAYRRETIDPTHTPEFEQLEGVVMDKDMSFADLLGLLAEFYHRMGFEEVRFRPGYFPYTEPSVEPEVYVDGLGWVELGGAGVFRKEVTEPLGIKAPVLAWGLGVSRLAMLKLGLKDLRLLYQSDIDWLRKSEVCKEGHHHHHH | soluble |
| MESFQNLAKKPTLKKQIIEQAFDLKCENCGRKYDYYKFDDGSEFKHGCDCEMIEYAKQSTENYHKRNRRRKAERIFKQSIMNEDLTKATFDNYNPTNEQLVYAKNLCERYANNFTLDNKQSLLIQGSFGTGKSHLSMSIVKSVKAKGYTVLYMNVPQLISTIKNTYNNQTAMTEQELAQIISDVDLMVFDDYGINMNEFATSKMFELIESRIGKHNIFTTNLDEKEMTKNKDLQRIFSRIMSNTTLIKMDGQDYRTRGLKLLEHHHHHH | soluble |
| MSLQPVAKTEQPEGGILYDFGKETFGFITLKNLSGKGKIDLYYGESPEEAKDKAYCETLDKLLLEPGQITDLAIRSTSPLHHSDNEYTLENSKAFRYVYITHEPEVQIGEVSMQYEYLPEEYRGNFRCNDEELNCIWEVGAYTMHLTTREFFIDGIKRDRWVWSGDAIQSYLMNYYLFFDSESVKRTIWLLRGKDPVTSHSNTIMDYTFYWFLSVYDYYMYSGDRHFVNQLYPRMQTMMDYVLGRTNKNGMVEGMSGDWVFVDWADGYLDKKGELSFEQVLFCRSLETMALCADLVGDKDGQQKYEKLASALKAKLEPTFWNNQKQAFVHNCVDGRQSDAVTRYANMFSVFFDYLNADKQQAIKQSVLLNDEILKITTPYMRFYELEALCALGEQETVMKEMKAYWGGMLKAGATSFWEKYNPEESGTQHLAMYGRPYGKSLCHAWGASPIYLLGKYYLGVKPTKEGYKEFAVSPVLGGLKWMEGTVPTPNGDIHVYMDNKTIKVKATEGKGYLTIQSREGHHHHHH | not soluble |
| MAFPFDILHLEIIRSTLESEKDRCEAKEKFGTIIDNLNGPADIEKYESLVQKAFLHANAETKLESIGFRVGRQLVEKVSKESPKLVTELEIVKFICKDFWSSVFGKQVDNLRTNHQGVYVVQDGRFTTLRSFPEGDQYVKESGYFLAFPCGLLRGALAGLNIRAIVTPTIESVPSVKFHIQVQPK | not soluble |
| MGSDKIHHHHHHMSGLCAKCVDGCTGGCETWLASFRGREVLYPGPFGDITAGAVKDYPVDYSHLNILGYARGAEGLPEGVEPGPDTAIFTNVDTTTEYGWDIKVKMKVPIFTGALGSTEIARKNWDHIAVGAAISGITVVCGENVAGVDPDLELDSNGKVKKSPELDRRIEIYKRYHDGEYGEILIQMNVEDTRLGVAEYVINKHGIETIELKWGQGAKSIGGEIKVRSLERALELKRRGYIVLPDPELPEVQRAFKEGEIKEFERHSRLGFVSKESFLKEVERLRKLGFKRITLKTGAYSAVELAMALRYGAEAKVDLITVDGAPGGTGMSPWPMMNEWGIPTFYLEALTYQFAEKLSRRGIRVPDIAIAGGFSTEDGVLKAIAMGSPYVKAVCMGRALMIPAMVGKNIGEWLKSGNLPKTVSKYGTTVEEIFVTYEELRSRFGEEEVKKLPLGAIGVYTFVQKFKTGLQQLMAGARKFRLSALSRKDLIALTKDAAEISGIPYVMESYRDEAERILEE | not soluble |
| MSLGSTTPISIFELVTRLENDSQVANDTKHLFFSGENIGYSEMIGRRPNMEDAIVIRENFREKLHIAAVFDGHSGHSVARSCAASLPDLLRNDETINSDAIKKHLDHINHVLLSSNDLAGSTMQFAIIDMNNNHLTIMQLGDSRSVVYKNDGRVTFYTQEMRPERRSELARLREDRIRLKRLRTGGMLACSTSIGDFQVKGISHEPEVIEMDISDDDRWIVIACDGLWDDVNNESAAKILLDSESPHVAATLLRDLAFQRGSEDNISVIVVDLDLLRNEGHHHHHH | soluble |
| MRCPNCNSLDTQVKDSRPTEDSSVIRRRRVCIACNFRFTTFERVQLRELIVIKRNGRRVPFDRDKLMRSVQISLRKRPVDPERVEQMVSAIVRELESGGEAEISSETIGESVMDHLRKLDDVAYVRFASVYRNFREAKDFEAVLGELSHEDEARAALVRK | not soluble |
| MSLADPGREGHLEQRILQVLTEAGSPVKLAQLVKECQAPKRELNQVLYRMKKELKVSLTSPATWCLGGTDPEGEGPAELALSSPAERPQQHAATIPETPGPQFSQQREEDIYRFLKDNGPQRALVIAQALGMRTAKDVNRDLYRMKSRHLLDMDEQSKAWTIYRPEDSGRRAKSASIIYQHNPINMICQNGPNSWISIANSEAIQIGHGNIITRQTVSREGHHHHHH | not soluble |
| MGSDKIHHHHHHMLYADENSFDIGAKITKTKPVLLPIGAVEAHGPHLPLGTDNILASEYSAKIAAETSGFVLPVLPYGQVWSLQDFPGSLTLSNETVTKVVVEIGESLYKQGFRLFVPVSGHLGNMAALKDAARELYAKYPDMVILHIFYPNIQKLAMDVREGNANHHTYIHACEIETSLMLYLSPENADMSRAIDDPPILPIDADFTPTPWQNFTKTAVLGEATLATAEKGEYLIEKTLKTCVELIKLEQEKIRKSTEME | not soluble |
| MSLGDRMKIVMVTHGGEGDAFWDRVRKGAEAAAAKDGVDLTYAGDADTADQADLVRDAIRDKADGIAVTLAKPQAMKAPVAEAKAAGIPVVGLNSGIDAWRSTGLLEYFGQDESVAGRAVGDKLDDLRAKHALCVIHERGNVALEARCAGVKKTFGGETEMLYVEGTDMKAVGAAVTARLRQDPSIDEVVMNGAAFALTAVEAVDEAGSDAHVATFDLDNDLVAAVKRGDVQFAVDQQPYLQGYLAVDALWLYRTNGNVSGGGVAPVLTGPAFVTREGHHHHHH | soluble |
| MSLKPCFGYIRVSTERQGDGASLEAQKDAITGFASQNNLEIVRWFEERETASKTGRPIFGEMMNALVSGAAEGLILHKVDRTARNFSDWSRLHEVAKLGIDVYFAADSLDFGTRGGQLLADIQMALAADYSRNLSQEVKKGIYGRIKNGVYPFRAPLGYLDTGGGNVKAIDPIKAPLVSQVFELYCSGDYSITSLTEEMQRRGLKGVGERPVVRRNIESILRNPFYCGKMLVRGKLYDGAHEPLISTAQYRRVAAIKAQRFVKKSTKHELLFRGLFTCGACGQVLTGERQKAHVYYRCHTPRCGRGAIREDRLEETLREKLARLEISPEDQVTLESDIRAWLNKDGVKDIEKSLRLRISDATARLDRLTDLLVDGAIDKPAYELRKQNVEFEKQQLREELDALERSRAEEKDLKALLALAADLSSLYDAAPPPKKRELIRNCLVAPCVMDGQLVSHPADWLVSLRKSPKTDEKSHSAPQAILEGVRVMHAVVDVEGHHHHHH | soluble |
| MGSDKIHHHHHHMTRAELYAVLDRFLAALDARDPTALDWAPGAHHSENNVMLEIGDGVWGTIDRLGDYRLRFADTRTRQVGYFGTVIEPIEESAFTLRLALDEAGRIAECEMLIVRQSDSGIKFENCRYWDKPILHREPEAPVSRQEMVRLSNGYFDTLQRNDGTIHTRFHPDCNRVENGVQTTRNPDFAKIVPVSALGCEEQFRMGNYRYDDDLRARRFPLVDEERGLVLAFGFIDHSGRLREFQLTDGRTVKSPVLRPHSFYISELFKIDHGMIEQIEANFITVPYRMPSPWDLL | not soluble |
| MTTSNIKALIPSELRKVWEFILDIENYDAWRSDLSKTEVVSDKQFIEYTKDGYPTTFTVTLVEPYRRWEFDMQNSNMSGHWIGVFTDKGNETEIDFTECVEAKKMLMKPFVKSYLKKQQAQFVADIMKNFSLEHHHHHH | soluble |
| MSLKVDSFSLPLSSPLATARETISQRSGFVVRYDHRGETGVGEATPLPGWTESLDDCQRGLNDAATVAAGGGHTDVLLSLDAASVPAARHGFATALLDADARADGVPLYQWFDSERHCNRVPVNATVGDGSPAETADAVERAVEAGYDCCKMKVGKRTVDEDVARVRTVRERVGDDVTLRADANGAWSRDRAQEAFDRLAPLDVAYVEQPLPADDLTGHAGLRGNGVGVALDESLVDRRVDSVLDADAADVLILKPMVLGGPGNAHTLALRAREQGVEPVVTTTIDAVVARLAALHVAAAIPDVAACGLATGDRLAADLAPDPTTVTDGAMSVPQSTGLGIDPTEVGTDAEGHHHHHH | soluble |
| MGSDKIHHHHHHMKLNLRSLEAFRETMLSGSATAAAGRMGLTQPAVSRLIAQLEQEVGFELFYRERGRLSPTPEALIIYDEIDLAFGGLERVDALARDIAAFNTGLLKIVAPPSLSESVLSTILPRFMARFPKVRIAIESRSTATARAMVANRTVDCGFVKLPLDRSDISTVTLSTSETVCVLPDTHPLTAHEVLTPELLRGEPLVLLGAGTWTRRQIDDAFRERGVRPDVRVETHTVGSACALAAGGLGVAIVNALLADNFARPGVAIRVFRPQILHEYAFMTSALAPMNRLAAAFLEEAQTFFREQAR | not soluble |
| MEEPVLDFQFVHRKIHTGQIAAFDIIARLVPIKNIRGNDFDDRPAAAVFGMHNLQTRPVARHFEGGADFTQLIVLTLGQPESAYVAVRLKIVRGDISRGGVGKLTGKQSHT | not soluble |
